Test results: the supplement of paper PMC12764529
± gives the half width of the 95% confidence interval.

Assay: folding stability dG unfold from trypsin proteolysis; higher = more stable
Outline: (§1)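 Designed mini-proteins (under 80 residues, no cysteine) in a PA-tagged cDNA display construct were digested with trypsin and chymotrypsin. Each protease was used at 11 concentrations (threefold dilutions) plus a no-protease condition, followed by sequencing. K50 was inferred by Bayesian fitting of sequencing counts, and unfolding free energy was derived against a sequence-predicted unfolded-state K50 and a shared folded-state K50, per protease or combined. Only designs with AlphaFold2 dimer inter-PAE above 15 were kept.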

Sequence | folding stability dG unfold [kcal/mol]
SAGGSKAKIVEAEIVEFDPEKGKITIRIKANGKTFEIEFPPGVKKIKLKVKLENGEEKEIEITIKPSAGGSA [r2_132_TrROS_Hall] | 1.85 ± 0.044
SAGGSAGGITPDDYFLIKLNAVVKLPNGDIVELKKDEVILAKADDVEILHADDIEIYPIGRDKLSAGGSAGG [r6_810_TrMRF] | 0.23 ± 0.048
SAGGNWKIRNPKNGRTIEIDNFNPGNGMFRVKVWNPNGNKEEHPIPGSLEEILEFLQKKGWPVEIERSAGGS [r16_748_TrROS] | 0.27 ± 0.21
SMVEVLPDGTVVLAGELPPNVSIEEFLNSLPGLEIASVEFEPDPETGVTHFVFVVTPDGRVYVGSVPLGKSA [r9_238_TrMRF] | 1.25 ± 0.04
SAGGSAGGSAGGSMITLKIPPSKPEEAEKLAKSLGAELKSFDPNTGVVDINSPPGASLESAGGSAGGSAGGS [r4_3_JUSTAS] | -1.25 ± 0.58
SWKIEIPVLVKVDPGETMDEMKDQVVEIADMIAKYMQKQGGPIEVDVDVTPDPEEGYIFVTVEIEVPPGASA [r9_1161_TrROS] | 1.03 ± 0.13
SSGIAEIVAANPGVSLEELAKLIKEKLKAELPTDEPIEIKMTKSPDGYKITITIKDENNWHSDEYYVKPGSA [r9_805_JUSTAS] | 2.95 ± 0.2
SAGGKVVPKNVKLPVTKEAEELAKKLAPELGYKKAEVKVKSAVEGYVKVEIYFPETGKKVEITVPVGSAGGS [r16_281_TrMRF] | -0.0217 ± 0.086
SAVTPISLPSETGTLYRTDTDVILVVLKDPDPSVYRIITLKKKSADIKPLDENILGELSPEEANNPELLSAG [r14_384_JUSTAS] | 0.617 ± 0.055
SAGGSAGGGMVKREIKVTVTRLPESDVWLVTVTTKIGDKWEIIPVPVAAPADLSAEELAKEVLESAGGSAGG [r6_21_JUSTAS] | 1.09 ± 0.036
SAGGSEITEEEAEKLKELFPNADITVEKVKPGETKTFPNGFRIEKTEDGYRVTVTLPNGEKLEFPVSAGGSA [r2_166_TrROS_Hall] | 1.1 ± 0.043
SAGGSAGGSAGGLKPGEKLVFKTETKTLKLKAKVFNKDTGEEFEVEVELTVTRIEVYPLSAGGSAGGSAGGS [r10_1116_TrROS_Hall] | 3.04 ± 0.31
SAGGSAGGSAMKEIKIELTYEDEEEAEKKAKEEKEKIKKELEEKGIKVEKITVEIHPPYHHSAGGSAGGSAG [r3_463_JUSTAS] | -0.647 ± 0.095
SAKDIEIEMERTNGYYQMTIKLPGKGYEISVWMPGDQYEISVQPPKNPDEVETIPFTVPEIKDALIDALSAG [r14_716_TrROS] | 0.519 ± 0.12
MLLVKAEFTIKNSDGTEETFTVLVEVPESEEEAEEAVEKEIEKIAEEKGLSTENITEIKVEIYPPSEPVKPS [r1_159_JUSTAS] | 2.1 ± 0.098
SAGLVVTKLPGDGTLRITLPPPGAPLVLTIPLDPGNGTLSVTVTRPDGRSETYTFPGGSIDEVIERLLSAGG [r19_159_JUSTAS] | 2.37 ± 0.074
SAGGSAGGMKELAEKLGWEYEEKEEKLPSGKKILIATFTSPDGSKVIITFDPSTNKIISEEVFESAGGSAGG [r6_982_JUSTAS] | 4.28 ± 0.4
SAGGKTVLVPVKSPEEAKIFIENFPESYDKVIVFNPETGTKAVFYIDPKTREVKEVKVEKFDLNDPNASAGG [r13_945_TrMRF] | 0.913 ± 0.017
SAGGSAGGLIEEILKEIGLSPEEVVKVEVEPIEEKENSLTVRVTAEFLLPDGSKKKIEAEFEIGSAGGSAGG [r6_774_TrMRF] | 1.1 ± 0.06
SIKIERDGDKIKITFKVPGPFRIMIFNNDEIQETTIPPGKPVKIEIDIPKGNFYIMIYFPGKPLAQIPFKSA [r9_411_TrROS] | 2.27 ± 0.19
SAGGSAGGMPIPPEVTEISFSKLPNGTYRLTITTKDGKTLTDVTFPPDLDPETAVEAAIATVAASAGGSAGG [r6_436_JUSTAS] | 1.45 ± 0.028

Sequence | folding stability dG unfold [kcal/mol]
SAMKEAKIVSIEFDEETGTVTIEIEVPPGAKLKIRFLDTGEELEVEVKPGETITITVPKEPILIEIELESAG [r14_96_TrROS_Hall] | 3.43 ± 0.18
SAGGNIKIEDIEIMKPMKDPDGNPDKPMYMVSIRIEHEYKYPDGPMKHKHEIMIMMPPNDPDEALDELSAGG [r13_149_TrROS] | 0.897 ± 0.081
SAGGSAGGSMKVYRIKIEVDGKTYEIEVEMSEEEVKKLAEELGIKDVKIKKVEIEPVEEVEEKSAGGSAGGS [r12_292_TrROS_Hall] | 0.859 ± 0.18
SAGGSAGGSAGGSGMITVTIEREYTSYVTFPGGTLEPVLLKTTVTATLPPGVPVEEFLSSAGGSAGGSAGGS [r4_126_JUSTAS] | 1.65 ± 0.058
SSASAMAPLPVEVYTLTVTVVKPGGEEVGTYTFTFNSPEEAKAFLEAFAKEKGLTIKKATLTRTPDTSLSSA [r9_1226_JUSTAS] | 2.7 ± 0.12
SAGGSAGGPANKKYLLVADAEVDPETGTVKVTVEYPNGKKVEFTFPAKNFHPDEKVLVPVVVTDSAGGSAGG [r6_768_TrMRF] | 1.02 ± 0.052
SKTIEIEIRVGGELYRIKIKVKRKGEPEEEIELTVPAGMSIEEIAARLKELYPDLKVEIVEIERLPPPEPSA [r9_364_TrROS_Hall] | 2.98 ± 0.072
SAGGMIKPGEKVKVRAVLRVGEEEEEIELELPLPENATVEDIAQAILDLIPEEPRKDAEVDIEVEPVSAGGS [r16_321_TrMRF] | -0.468 ± 0.3
SAGGSAGGSAGGSLIVPAKDAVRFAEEWRRRFGGRFEIRGIPGIPFVPILVRPPDPAEFSAGGSAGGSAGGS [r4_419_TrMRF] | -0.418 ± 0.38
SAGGSAGGKPPKPPKKVTITVTITFTLEDGKTVTVTAKITFLPDGTIKIEITYPDGSKLTLTFPSAGGSAGG [r6_109_TrROS_Hall] | 3.75 ± 0.35
SAGGSSELEEAIEKARAEPGVLVERTVKLPDGRELKVEVDPKTGIVTLTETLPDGSTTTKEETYEPSAGGSA [r2_263_JUSTAS] | 0.512 ± 0.088
MLTLPDGRPAFVRARVVLPPGVRVTVVGDIPAEELERRLGRRVTPEDIVRAVVEAARRRGLTVEAVELDLRS [r1_338_TrMRF] | 1.11 ± 0.013
SAGGSAGGSAGGDTVEIELRAFFPETGLIITPTITIDKNGKIISINPRIEPLPPPLEGILSAGGSAGGSAGG [r7_135_TrMRF] | 0.341 ± 0.069
SAGGSAGGSAGKYAIVEVNGKPVLVEFEPLPDDKVKVKIVFPDGSKVEIELKANEPIYVGSAGGSAGGSAGG [r11_525_TrMRF] | 1.75 ± 0.095
SAGGSAKEIKVEITYDPETNTITIKVYKDGKLVAEMTMKIEVNGKLIEVKVTLYLDPKTKKLVVKPSAGGSA [r15_770_TrROS_Hall] | 1.94 ± 0.081
SAGGSAGGIWFMIKSAEDLKNLLNKWGWTIKDISVERWENDDGYVWIPIKIKPVPPPPPPEEDKSAGGSAGG [r6_981_TrROS] | 2.36 ± 0.086
SAGGMKIVSESTDPSVPTSYVTIEITDPKTGKKTTIKLPQDPAAGTGSPEALAKEVREKLKLPEGVELSAGG [r13_362_JUSTAS] | 0.221 ± 0.083
SAGGKVLVFYAPSPELIEKWAKELGLKLKKVSKEGDKFVAEFELPSGEKVLVVADEEAFKKLGIDPEKISAG [r5_12_TrMRF] | 2.93 ± 0.1
SAGGMTITVTKKTKPEDVEKLVEEIKEELEKKGYNVKKIEVTYKVVKDPNSSNEIVELTLTIEVEKPSAGGS [r8_475_JUSTAS] | 4.55 ± 0.89
SAGGSAGGSAKIKVLIKITNKDGKKKEILLEAETEEEALEAAKKLAEKEINGKKYKIEIKPLSAGGSAGGSA [r18_457_TrROS_Hall] | 1.83 ± 0.074
SAGGGTYYLIFKITETKTDPKTGKTTTSEKVIVDPLENPGSISAEEIAKLKEELEPKGYTVEIEIKPKSAGG [r13_926_JUSTAS] | 0.654 ± 0.045

Assay: folding stability dG unfold from chymotrypsin proteolysis; higher = more stable
Outline: as §1

Sequence | folding stability dG unfold [kcal/mol]
SAGGSKAKIVEAEIVEFDPEKGKITIRIKANGKTFEIEFPPGVKKIKLKVKLENGEEKEIEITIKPSAGGSA [r2_132_TrROS_Hall] | 3.01 ± 0.14
SAGGSAGGITPDDYFLIKLNAVVKLPNGDIVELKKDEVILAKADDVEILHADDIEIYPIGRDKLSAGGSAGG [r6_810_TrMRF] | -0.503 ± 0.29
SAGGNWKIRNPKNGRTIEIDNFNPGNGMFRVKVWNPNGNKEEHPIPGSLEEILEFLQKKGWPVEIERSAGGS [r16_748_TrROS] | 0.888 ± 0.2
SMVEVLPDGTVVLAGELPPNVSIEEFLNSLPGLEIASVEFEPDPETGVTHFVFVVTPDGRVYVGSVPLGKSA [r9_238_TrMRF] | 2.63 ± 0.041
SAGGSAGGSAGGSMITLKIPPSKPEEAEKLAKSLGAELKSFDPNTGVVDINSPPGASLESAGGSAGGSAGGS [r4_3_JUSTAS] | -1.35 ± 0.74
SWKIEIPVLVKVDPGETMDEMKDQVVEIADMIAKYMQKQGGPIEVDVDVTPDPEEGYIFVTVEIEVPPGASA [r9_1161_TrROS] | 2.9 ± 0.13
SSGIAEIVAANPGVSLEELAKLIKEKLKAELPTDEPIEIKMTKSPDGYKITITIKDENNWHSDEYYVKPGSA [r9_805_JUSTAS] | 3.14 ± 0.16
SAGGKVVPKNVKLPVTKEAEELAKKLAPELGYKKAEVKVKSAVEGYVKVEIYFPETGKKVEITVPVGSAGGS [r16_281_TrMRF] | 1.04 ± 0.025
SAVTPISLPSETGTLYRTDTDVILVVLKDPDPSVYRIITLKKKSADIKPLDENILGELSPEEANNPELLSAG [r14_384_JUSTAS] | 0.756 ± 0.11
SAGGSAGGGMVKREIKVTVTRLPESDVWLVTVTTKIGDKWEIIPVPVAAPADLSAEELAKEVLESAGGSAGG [r6_21_JUSTAS] | 0.751 ± 0.087
SAGGSEITEEEAEKLKELFPNADITVEKVKPGETKTFPNGFRIEKTEDGYRVTVTLPNGEKLEFPVSAGGSA [r2_166_TrROS_Hall] | 1.37 ± 0.053
SAGGSAGGSAGGLKPGEKLVFKTETKTLKLKAKVFNKDTGEEFEVEVELTVTRIEVYPLSAGGSAGGSAGGS [r10_1116_TrROS_Hall] | 4.96 ± 0.22
SAGGSAGGSAMKEIKIELTYEDEEEAEKKAKEEKEKIKKELEEKGIKVEKITVEIHPPYHHSAGGSAGGSAG [r3_463_JUSTAS] | 1.12 ± 0.067
SAKDIEIEMERTNGYYQMTIKLPGKGYEISVWMPGDQYEISVQPPKNPDEVETIPFTVPEIKDALIDALSAG [r14_716_TrROS] | 1.26 ± 0.16
MLLVKAEFTIKNSDGTEETFTVLVEVPESEEEAEEAVEKEIEKIAEEKGLSTENITEIKVEIYPPSEPVKPS [r1_159_JUSTAS] | 2.7 ± 0.077
SAGLVVTKLPGDGTLRITLPPPGAPLVLTIPLDPGNGTLSVTVTRPDGRSETYTFPGGSIDEVIERLLSAGG [r19_159_JUSTAS] | 2.902 ± 0.021
SAGGSAGGMKELAEKLGWEYEEKEEKLPSGKKILIATFTSPDGSKVIITFDPSTNKIISEEVFESAGGSAGG [r6_982_JUSTAS] | 3.71 ± 0.23
SAGGKTVLVPVKSPEEAKIFIENFPESYDKVIVFNPETGTKAVFYIDPKTREVKEVKVEKFDLNDPNASAGG [r13_945_TrMRF] | 1.22 ± 0.052
SAGGSAGGLIEEILKEIGLSPEEVVKVEVEPIEEKENSLTVRVTAEFLLPDGSKKKIEAEFEIGSAGGSAGG [r6_774_TrMRF] | 1.13 ± 0.082
SIKIERDGDKIKITFKVPGPFRIMIFNNDEIQETTIPPGKPVKIEIDIPKGNFYIMIYFPGKPLAQIPFKSA [r9_411_TrROS] | 1.96 ± 0.17
SAGGSAGGMPIPPEVTEISFSKLPNGTYRLTITTKDGKTLTDVTFPPDLDPETAVEAAIATVAASAGGSAGG [r6_436_JUSTAS] | 1.48 ± 0.06
